Source: the nanobody polyreactivity screen of Harvey et al. (2022)

Assay: yeast display, Sf9 membrane polyspecificity reagent, FACS + sequencing; frameworks hold sequencing errors
Method in brief: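 A nanobody's polyreactivity label depends on the gate it was sorted from. Yeast display cells were stained with 10% biotinylated, detergent-solubilized Sf9 membrane reagent for 1 hour at 4 °C, enriched on streptavidin microbeads and sorted by FACS. The low and high (top ~1%) gates were set on anti-HA fluorescence for expression and streptavidin fluorescence for reagent binding.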

Sequence	polyreactivity (PSR sort gate)
QVQLVESGGGIVQAGGSLRLSCAASGSIFDSNAMGWYRQAPGKERELVAAITGSGTSTYYADSVKGRFTISRDNAKNTVYLQMNSLKPEDTAVYYCAAAPEYLTDHDYWGQGTQVTVSS	low polyreactivity
QVQLVESGGGIVQAGGSLRLSCAASGSIFKTNPMGWYRQAPGKERELVADISPSSGRTYYADSVKGRFTISRDNSKNTVYLQMNCLKPDDTAVYYCNRLSRRGYDYWGQGTQVTVSS	high polyreactivity
QVQLVESGGGIVQAGGSLRLSCAASGSIFQGNAMGWYRQAAGKERELVAAITYSGGSTYYADSVKGRFTISRDNAKNTVYLQMNSLKPEDTAVSYCNTTLRDSRQYVDRAPYTRYDYWGQGTQVTVSS	low polyreactivity
QVQLVESGGGIVQAGGSLRLSCAASGSIFSENTMGWYRQAPGKKRELVADITSGGSTNYADSVKGRFTISRDNAKNTVYLQMNSLKPEDTAVYYCNADWEAYKYNYWGQGTQVTVSS	low polyreactivity
QVQLVESGGGIVQAGGSLRLSCAASGSIFSRKVMGWYRQAPGKDRELVAAISWSGSSTSYADSVKGRFTISRDTAKNTVYLQMNSLKPEDTAVYYCNRYFGQGYWGQGTQVTVSS	high polyreactivity
QVQLVESGGGIVQAGGSLRLSCAASGSIFVHNDMGWYRQAPGKERELVARINTGGGTNYADSVKGRFTISRDNAKNTVYLEMNSLKPEDTAVYYCATDGDRYDHYFTDPEFDYWGQGTQVTVSS	low polyreactivity
QVQLVESGGGIVQAGGSLRLSCAASGSIVRGYAMGWYRQAPGKERELVAAITFSGGSTYADSVKGRFTISRDNAKNTVYLQMNSLKPEDTAVYYCAAKRTGHNWFTVYPYYSWGQGTQVTVSS	low polyreactivity
QVQLVESGGGIVQAGGSLRLSCAASGSIYRYNTMGWYRQEPRKERELVATITRRGGSTYYADSVQGRFTISRDNAKNTVYLQMNSLKPEDTAVYYCNADYFGGPYNYWGQGTQVTVSS	low polyreactivity
QVQLVESGGGIVQAGGSLRLSCAASGSTFAYYAIGWYRQAPGKEREFVATITWTGGSTNYADSETGRFTISRDNAKNSVYLQMNSLKPEATAVYYSAASFVISYDYWGQGTQVTVSS	high polyreactivity
QVQLVESGGGIVQAGGSLRLSCAASGSTFDVNAMGWYRQAPGKERELVAAISWNSGSTYYADSVKGRFTISRDNAKNTVYLQMNSLKPEDTAVYYCAATYGTGRRSKYGYWGQGTQVTVSS	high polyreactivity
QVQLVESGGGIVQAGGSLRLSCAASGSTFNYYAMGWYRQAPGKERELVAAISISGGSTYYADSVKGRFTISRDNAKNTVYLQMNSLKPEDTAVYYCAAVPYGFVGYDDYWGQGTQVTVSS	low polyreactivity
QVQLVESGGGIVQAGGSLRLSCAASGSTFRLYAMGWYRQAPGKERELVAAITWSVGSTYYADSVKGRFTISRDNAKNTVYLQMNSLKPEDTAVYYCAADRIGYYLRVSYRGKYDHWGQGTQVTVSS	low polyreactivity
QVQLVESGGGIVQAGGSLRLSCAASGSTFTANAMGWYRQAPGKERELVAAISRSGGSTYYADSVKGRFTISRDNAKNTVYLQMNSLKPEDTAVYYCAAESPLFSPPDGEDYWGQGTQVTVSS	low polyreactivity
QVQLVESGGGIVQAGGSLRLSCAASGSTFYDYAMGWYRQAPGKETELVAAITRGGSTYYADSVKGRFTISRDNAKNTVYLQMNILKPEDTAVFYCAKYLTCAAYLVPEYDYWGQGTQVSVSS	low polyreactivity
QVQLVESGGGIVQAGGSLRLSCAASGSTFYRYAMGWYRQAPGKERELVATITNSGGSTYYADSVKGRFTISRDNAKNTVYLQMNSLKPEDTAVYYCARVRSRNTGYYYWGQGTQVTVSS	high polyreactivity
QVQLVESGGGIVQAGGSLRLSCAASGSTLWGNVMRSYRQAPGKERELVAVISKTGGSTYYADSVKGRFTISRDNAKNTVYLQMNSLKPEDSAVYYCATRWPYRSDWGLGTQVTVSS	high polyreactivity
QVQLVESGGGIVQAGGSLRLSCAASGSTVVIYTMGWSRQAAGKEREFVASLSVSGGSTYYADSVKGRFTISRDYAKKTVYLQMNSLKPEDTAVYYCAAGYPYYYWTPYYYWGQGTQVTVSS	high polyreactivity
QVQLVESGGGIVQAGGSLRLSCAASGTLGSYRQAPGNEWELVAAISQSGGSTYYADSVKGRFTISRDNAKNTVYLQMNSLKPEDTAVYYCAVDPRYGHPRRDYWGQGTQVTVSS	low polyreactivity
QVQLVESGGGIVQAGGSLRLSCAASGYTFGRYAMGWYRQAPGKERELVAGIRWRGGSTYYADSVKGRFTISRDNAKNTVYLQMNSLKPEDTAVYYCAAYGYPVYYNYHYDYWGQVTQVTVSS	high polyreactivity
QVQLVESGGGIVQAGGSLRLSCAASVFTFSDYTMGWYRQAPGKERELVAAINRGGNTYYADSVKGRFTISRDNAKNTVYLQMNSLKPEDTALYYCAAASYYAPYYWGQCTQVTVSS	high polyreactivity
QVQLVESGGGIVQAGGSLRLSCAATGFIFDQNAMAWYIQAPGKERELVAAISKRGGSTYYADSVKGRFTISRDNAKNTVYLQMNSLKREDTAVYYGATRSWGPYYYGYNHWGQGTQVTVSS	high polyreactivity
QVQLVESGGGIVQAGGSLRLSCAATGSIFGNYAMGWYRQAPGKERELVAAITSSGGTYYADSVKGRFTISRDNAKNTVYLQMNSLKPEDTAVYYCAARYYSYRHQSVKYGYWGQGTQVTVSS	high polyreactivity
QVQLVESGGGIVQAGGSLRLSCAGSGIIFWYYAMGWYRQAPGKERELVAAISQSGGRTYYADSVKGRFTISRDNAKNTVYLQMNSLKPEDTAVYYCAAGLVYRWSTTPRRLYYYWGQGTQVTVSS	high polyreactivity
QVQLVESGGGIVQAGGSLRLSCTASGFTFVYYAMGWYRQAPGKERELVASISRSGGSTYYADSVKGRFTISRDNAKNTVYLQMNSLKPEDTGVYYCNARYGRTALLDYWGQGTQVTVSS	high polyreactivity
QVQLVESGGGIVQAGGSLRLSSAASGRIFPYYAMGWYRQSPGKERELVAAINWRGTRTYADSVKWRFTISRDNAKYTVYFQMTSLNPEDTAVYYCAARTLYFSKYDYWGLGTQVTVSS	high polyreactivity
QVQLVESGGGIVQAGGSLRLSSAASGRIFRYYAMGWYRQAPGKERQLVAAISGSGGITYYADSVKGRFTISRDNAKNTVYLQLNRLKPEDTAVYYCAARYGIRPSVSGGYWGQGTQVTVSS	high polyreactivity
QVQLVESGGGIVQAGGSLRLTCAASGITFYKYDMGWYRQAPGKDRELVAAISFRGGNTNYADSVKGRFTISRDNAKNTVYLQMNILKPEDTAVYYCAAYSYTWFYEYGYWGQGTQVTVSS	high polyreactivity
QVQLVESGGGIVQAGGSLRLTCAASGRIFLANAMGWYRQAPGKERELVAAISLSGGRTYYADSLKGRFTISRDNAKNSVYFQRNSLKPEDTAVYYCAAEFYPIRYYGGYDYWGQGTQVTVSS	low polyreactivity
QVQLVESGGGIVQAGGSLRVSCAASGTMGWYRQAPGKERELVAAISQSGGSTYYADSVKGRFTISRDNAKNTVYLQMNSLKPEDTAVYYCAVDPGYGHPRRDYWGQGTQVTVSS	low polyreactivity
QVQLVESGGGIVQAGGSLSLSCAASGNIFTAYAMGWYRQAPGKERELVATITSSGDSTYYADSVKGRFTISRDNAKNTVYLQMNRLKPEDTSVYYFATADPSASNEVYEYDYWGQGTQVTVSS	low polyreactivity
